Test results taken from patent publication US6509165.

Target: RT1.D (rat MHC class II molecule) (rat)
Experiment: cell-based or functional assay

Substance Ox-17 (anti-RT1.D antibody) has an inhibition of proliferation of PI-specific T cells to 20 ug/ml PI peptide of 22 to 25%.
